Legend:
Experiment in all cases: purified protein
purified protein [1] = substrate: Oc1ccc2c(O)cccc2c1; type: biochemical, Streptomyces griseoflavus; conditions: FPP as co-substrate; Mg2+ stimulates but is not required
purified protein [2] = substrate: CC(C)=CCC/C(C)=C/CC/C(C)=C/CO[P@@](=O)(O)OP(=O)(O)O; conditions: […],6-DHN as co-substrate; Mg2+ stimulates but is not required
purified protein [3] = substrate: CC(C)=CCC/C(C)=C/COP(=O)(O)OP(=O)(O)O; conditions: […],6-DHN as co-substrate; Mg2+ stimulates but is not required
purified protein [4] = substrate: O=C1Nc2ccccc2Nc2ccccc21; type: biochemical, Micromonospora sp. RV115; conditions: FPP as co-substrate; Mg2+ stimulates but is not required
purified protein [5] = substrate: Oc1ccc2c(O)cccc2c1; type: biochemical, Micromonospora sp. RV115; conditions: FPP as co-substrate; Mg2+ stimulates but is not required

B1: Ssrg_00986 (Streptomyces griseoflavus Tu4000) (protein)
chain: MSGTSEADEICSAVTETAGRLGIAFSRDKVWPILSAYGDAFAHAMPLAFRMATGPQHAGDVDCRFITHPKDRNPYPLAVSKGLTPKTSHPVGTLLSEIEERFPIDGYGIDFGVVNGFTKVYAGFAPQDLQNASKLVEIPAMPRSLAGNFDFFVRHGLDDKVAFVAVDYLHRTVNVYFNDVPAACFESDGIRRMLRDLGLPGPSDRMLGIGGQAFGLYITLNWDSPAIERFCFGVTTTDLSSLPVSIEPQLEKFAHCVPYGGADRKFVYGVAAAPEGEYYKLETHYKWNPGTVAFI
notes: His8-tagged Ssrg_00986 (295 amino acids)
Which K0.5 (purified protein [1]) does the source give for B1 here?
Its K0.5 is 96 ± 11 µM.

And the Km (purified protein [2])?
The Km was 45 µM.

What about the Km (purified protein [3]) of the same protein?
Its Km is 45 µM.

B2: DzmP (Micromonospora sp. RV115) (protein)
chain: MSGTPEVAELYSTIEESARQLDVPCSRDRVWPVLSAYGDAFAHPEAVVAFRVATALRHAGELDCRFRTHPDDRDPYASAIARGLTPRTDHPIGGLLAEVHRRCPVESHGIDFGVVGGFKKIYAAFAPDELQVASVLAGIPAMPRSLAANAGFFTRHGLDDRVGVLGFDYPARTVNVYFNDVPRECFEPETIRSTLRRTGMAEPSEQMLRLGAGAFGLYVTLGWDSPEIERICYAAATTDLTTLPVPVEPEIEKFVKSVPYGGGDRKFVYGVALTPKGEYYKLESHYKWKPGAVNFI
notes: His8-tagged DzmP (296 amino acids)
With B2 as the protein, how does the Km (purified protein [4]) read?
Its Km is 133 ± 30 µM.

What about the K0.5 (purified protein [5]) of the same protein?
Its K0.5 is 18 ± 1 µM.

And the Km (purified protein [2])?
Its Km is 20 µM.

What about the Km (purified protein [3]) of the same protein?
The Km was 4.9 ± 0.9 µM.
